According to the supplement of paper PMC12042874:
± gives the uncertainty stated by the source.

Experiment: amyloid nucleation score (Sup35N fusion, yeast selection) (log enrichment); library NNK1; higher = more nucleation; inactive = no reads after selection
Method in brief: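 The nucleation score, computed with DiMSum, is the log enrichment of output over input reads, centred on the mode score of non-aggregating sequences. Sequences with under 100 input reads were dropped. Reads were generated by Illumina sequencing of plasmid inserts from psi-negative yeast with Sup35N fused to peptides of 20 random codons, induced with 100 μM copper sulfate for 24 hours and grown 7 days at 30°C on medium lacking adenine and uracil.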

Row | Substance | amyloid nucleation score
1 | TTPGALSSRTMSMPDVLGIE | 1.37 ± 0.5
2 | TTTCMRYGLIVC | 1.7 ± 0.52
3 | TVASRFEFYTKDWAYRNGRL | 1.76 ± 0.33
4 | TVEGSRYFRSSLYHSARSHW | 1.14 ± 0.55
5 | TVFDSLC | 0.372 ± 1.2
6 | TVFFCNWVEPYDFNICR | 6.763 ± 0.059
7 | TVFFPFLTNSRGDRLRDCWM | -0.65 ± 1.1
8 | TVIRESIPKFWFYTLGMLKV | -0.6 ± 0.35
9 | TVIRSVIIPITPPIIR | 1.57 ± 0.56
10 | TVITFRLAT | 1.69 ± 0.26
11 | TVKHC | 3.17 ± 0.14
12 | TVLVT | -0.461 ± 0.48
13 | TVLYPGPGAVS | 0.155 ± 0.73
14 | TVMFCRQWVFNCVFFIDIVK | 1.31 ± 0.1
15 | TVNRMIFFMRLLYTRVKL | -1.68 ± 2.7
16 | TVPIRTTTLSNGAFVWLI | inactive
17 | TVSIGDVTRFVMAVASTTF | 0.18 ± 1.1
18 | TWGSGY | -0.797 ± 0.93
19 | TWNKCKVADSLFMTRIIMVL | 0.305 ± 0.41
20 | TWQNRTSLIEVTSYMFHGWV | 0.294 ± 0.59
21 | TYDQTRMTVHRSSSIERART | 0.173 ± 1.4
22 | TYFFKLNP | -1.07 ± 1.4
23 | TYFSDLVRRRRCKAGNVWFL | 1.58 ± 0.74
24 | TYFSISQLLGFFQSVGPYVF | 0.108 ± 0.56
25 | TYNRGMGGRISVFCLFTGVM | 0.078 ± 0.21

Row | Substance | amyloid nucleation score
26 | TYRDKNNVRFKRFLGKRTAC | -1.22 ± 0.99
27 | TYRLH | -0.57 ± 0.55
28 | TYSKSVCWAHHHSYTGVCLT | 0.127 ± 0.52
29 | TYSSARDSS | -0.209 ± 0.63
30 | TYYGVSPDTASNAACLYPRH | -0.746 ± 1.9
31 | TYYKQYVLMYRALNFAGSWS | 1.21 ± 0.79
32 | VAAFEIMHLLISCDNRCRFQ | 0.337 ± 0.38
33 | VAEEYSN | inactive
34 | VAFVLLTQVGGWRLGIWRRK | -1.09 ± 0.66
35 | VAGFPVEDRLRQISSWAVSG | -1.07 ± 0.62
36 | VAHSLYLNIYGFQLMS | 7.454 ± 0.06
37 | VATRYWSRLCTMFVHSTRTT | inactive
38 | VCFEVWSGHFSASLTM | 0.663 ± 0.44
39 | VCGEYEITVKIISVSRSNKC | 1.45 ± 0.26
40 | VCIVPIVYPLFKFSVSNDPT | -0.202 ± 0.57
41 | VCKWNSSIFLYNRPSVSAAV | 0.123 ± 0.4
42 | VCLANGHWATHMHYIFHYLS | -0.915 ± 0.73
43 | VCNFLFAFSFW | 6.746 ± 0.064
44 | VCNQWGDHA | -1.08 ± 1.7
45 | VCRRVHGSMP | -0.236 ± 1.2
46 | VCSCRFLYI | -1.53 ± 1.6
47 | VCTCFSSWAWEVNF | 3.28 ± 0.083
48 | VCYGVLPFEEWKMSFSACVT | 0.369 ± 0.37
49 | VDCLFLKHHFFLTVSSMVRN | 1.43 ± 0.84
50 | VDNSCFRGT | -0.391 ± 0.66

Row | Substance | amyloid nucleation score
51 | VDRVGYIP | -0.506 ± 0.47
52 | VDYMERGYYAYIMVGICI | inactive
53 | VECLAAVNYGEVHDPGVMDR | 0.417 ± 0.71
54 | VEFGSHVFYLKGRSDKAKYL | -0.283 ± 0.45
55 | VEGLERLLVLWHWPFAWNYF | -0.735 ± 1.4
56 | VELSYCMQRMSARIQCGRKP | 2.09 ± 0.43
57 | VERGY | 1.03 ± 0.61
58 | VETIRQINVHVSGVDIHFWD | 6.872 ± 0.045
59 | VFALMRISSNSMSKCQFVCD | -0.187 ± 0.39
60 | VFCYQT | 0.055 ± 1.1
61 | VFFGLTICFFVAHHCQERGS | 2.54 ± 0.21
62 | VFFLGMVCAVWATFDVSYNG | 1.31 ± 0.35
63 | VFFSKI | 1.08 ± 0.53
64 | VFFYSRT | 3.02 ± 0.08
65 | VFGSKFGLKLITDFINILLR | inactive
66 | VFIDGLTSYTEIMRL | inactive
67 | VFIVELNFMLRN | 4.69 ± 0.055
68 | VFKESGSRGFVMYTGILSCQ | 0.507 ± 0.68
69 | VFLVTIWRSIMVLWNTVW | -0.284 ± 0.47
70 | VFLVYLY | -0.608 ± 0.28
71 | VFMMSDTC | inactive
72 | VFNTGYRVSRILDLGYKFNM | inactive
73 | VFSFYNRNLLILNISLYGYC | 5.89 ± 0.085
74 | VFSKLDTLFTVSMTLRPMWP | 0.566 ± 0.79
75 | VFSSVGGETSYRCMGTASGT | -0.231 ± 0.46

Row | Substance | amyloid nucleation score
76 | VFVVNTTESWHNLALFWSSR | 0.382 ± 0.45
77 | VFWGL | 0.072 ± 0.47
78 | VFYVCFNAKLPLLGYFDLKV | inactive
79 | VGGGSRWDIRDNSNQSIIPM | -0.338 ± 0.34
80 | VGGNPN | 1.19 ± 0.98
81 | VGIPRYGYEPVVHALVKPFE | 0.959 ± 0.79
82 | VGIWLGTGTWGCKGL | 0.485 ± 0.66
83 | VGRFLSYGRWLA | -0.393 ± 0.42
84 | VGRNQNKTDEG | 0.564 ± 0.95
85 | VGSSLDMPAPKRVGSEYCSV | 0.279 ± 0.66
86 | VGTTDG | inactive
87 | VGVVGDYDLQIS | -1.2 ± 2.4
88 | VGWTALVQALGNGTQHGVVT | 0.394 ± 0.78
89 | VGYGASMYYYFFWHKFFLVF | 0.037 ± 1
90 | VGYHFMYSMSAFVASWRSWG | -0.482 ± 0.88
91 | VGYSPVVFSLNNICGSPFLM | 5.277 ± 0.047
92 | VHDENYDRFQGFVLDMLQAH | 0.641 ± 0.37
93 | VHEMNSRTDFYKIKKSGTLV | 0.158 ± 0.29
94 | VHSGNMMSNFGWAERLHKKA | -0.39 ± 1.2
95 | VHTWYHCLSAEMSVMSILDL | -0.39 ± 1.7
96 | VHYWLVNSSTKRGRPFASAF | -0.231 ± 0.36
97 | VIDRTEGTYCREITTFHYYN | -0.378 ± 0.62
98 | VIHVSTYDSGVLPLKEDGTF | 0.151 ± 0.4
99 | VILVFRVDNCTERKAN | -0.097 ± 0.5
100 | VIMLVNDAFVGI | -0.543 ± 0.26

Row | Substance | amyloid nucleation score
101 | VISHEPAVFPTSRS | 0.121 ± 0.45
102 | VITFITSL | 3.85 ± 0.064
103 | VITGYVCMDSVQFIWYVVWV | -0.638 ± 1
104 | VITVRLFILW | -0.213 ± 0.43
105 | VIVFCCSEDNRRGQLKV | -1.49 ± 0.84
106 | VIYSSIHKLSDGDRVENPRS | -0.933 ± 0.96
107 | VKDASFRFAQQEGMRLRMQS | 0.503 ± 0.38
108 | VKDATSHASGDFGRPGHWDK | -0.042 ± 0.55
109 | VKLTNLGFRGKFDVVDCHWI | -0.546 ± 0.34
110 | VKMFMD | 0.644 ± 0.59
111 | VKMYRAFIQGYGSLDRRQFP | 0.45 ± 0.42
112 | VKRGHNGGSAITISLDLYLF | 5.11 ± 0.069
113 | VKSADIIVL | -0.357 ± 0.34
114 | VKSSFNMSARVVLDENIHER | -0.067 ± 0.69
115 | VKVCMGLGYSGLMLGGLWDS | -0.491 ± 1.9
116 | VKYLRYFSSLDLLLIVLQAI | 0.31 ± 1.2
117 | VKYTYDS | -0.238 ± 0.65
118 | VLARNRWRRKWRHTRGWVRG | 0.157 ± 1.4
119 | VLCNLTVS | -0.907 ± 1.8
120 | VLESLAYFPGFNEWCGDMMS | 1.43 ± 0.42
121 | VLFGWGCGNTFSRPSNRGQR | 0.97 ± 0.37
122 | VLFIFRSRFNVE | 3.47 ± 0.11
123 | VLGERYCPSNVLWLHLCGGE | 0.315 ± 0.28
124 | VLGMPSLRILYITCCSDMVC | 6.37 ± 0.046
125 | VLHEGCIMFKKLLLKALCRR | -0.128 ± 0.45

Row | Substance | amyloid nucleation score
126 | VLLGSCWVFKSQKGRGPSSC | -0.51 ± 0.69
127 | VLLQELLSYITIGCLELGFG | 0.11 ± 0.3
128 | VLMITGVCCSHNMLVLADKR | 6.609 ± 0.057
129 | VLMLCCMGSTRVCMTYMPDN | 6.885 ± 0.064
130 | VLMRSEMESRFNEGRSTQGC | 0.361 ± 0.3
131 | VLPFSLFAYAACFVLTLTYV | 0.274 ± 1.1
132 | VLRKTFGCFETMV | 3.92 ± 0.073
133 | VLSAYSFYVSIWYNFSFIYG | 0.689 ± 0.57
134 | VLSCLPHAINFFYPSRSK | 1.05 ± 0.35
135 | VLSVNAV | -0.482 ± 0.51
136 | VLTCKE | -1.55 ± 1.2
137 | VLTEGYLFTSLIDL | -0.22 ± 0.43
138 | VLYFYFFIQIRVGIQYSVKN | 2.41 ± 0.41
139 | VLYGADDVLVRVSTCVYMGG | -0.136 ± 0.25
140 | VLYQRVRTGTTYGRARRLDV | -0.622 ± 1.7
141 | VMCQCYSGGM | 1.31 ± 0.4
142 | VMCVTIMSVFWNGLRNVEAM | 0.977 ± 0.18
143 | VMDQLIV | inactive
144 | VMKGSRHVRDKRALYYDILR | -0.308 ± 0.59
145 | VMLMCYPLTRPRCGTERNMF | 0.091 ± 0.49
146 | VNGYFAASDECFWCRSAGPN | 0.555 ± 0.34
147 | VNHIWWEFQGVSAYSNFRRD | -0.417 ± 1.5
148 | VNNFIDCSSFCVYYLFKPGR | 7.671 ± 0.051
149 | VNTMPILFFMPCVMKLSV | 1.53 ± 0.57
150 | VNYFARSGASKICML | -0.366 ± 0.88

Row | Substance | amyloid nucleation score
151 | VPANEFCMADIMHRANRMLG | 0.758 ± 0.71
152 | VPILFRLLVNTSPYNGPLGL | -0.042 ± 0.56
153 | VPRLLYQFLTSHTVVDSPEV | -0.069 ± 0.56
154 | VPSLRYYLYGSFFVI | -2.49 ± 1.7
155 | VQFSLGALFWWPWGR | 2.27 ± 0.22
156 | VQSIRRKVLETRQERVGAQR | 0.04 ± 0.42
157 | VRAGH | 0.087 ± 0.27
158 | VRARVLSKTIMMTTYERHLV | -0.691 ± 1.7
159 | VRCTFLVKVDWTFYKASRPR | 0.087 ± 0.47
160 | VRFFM | -0.422 ± 0.45
161 | VRFKGMWHKQ | -1.04 ± 1.1
162 | VRGLGGW | -0.134 ± 0.97
163 | VRGYGGVC | -0.296 ± 0.3
164 | VRIINMFVDPNIIL | 6.818 ± 0.044
165 | VRIRPISPMPDYSPPANWSK | 0.041 ± 0.47
166 | VRISVCNYWFMVVGMAF | 0.251 ± 0.31
167 | VRLFMYMCIWMFMSDSSIWG | -0.348 ± 0.64
168 | VRLLEHSANPSMGKMNMNVG | 0.231 ± 0.74
169 | VRLTSINSLCIVGDTQGST | 0.945 ± 0.73
170 | VRMIFVQCWKCTESNFCERN | -0.174 ± 0.66
171 | VRRCFFVYSVR | -0.979 ± 1.2
172 | VRTSVCCTRALAMLRSLWVT | -0.625 ± 0.73
173 | VRVPCDIAIYMYGGLKALLS | -0.245 ± 1.3
